Assays:
[1] = molecular target: T1, Purified oat phytochrome A, Pr spectral form, autophosphorylated, P06593
T1 chain: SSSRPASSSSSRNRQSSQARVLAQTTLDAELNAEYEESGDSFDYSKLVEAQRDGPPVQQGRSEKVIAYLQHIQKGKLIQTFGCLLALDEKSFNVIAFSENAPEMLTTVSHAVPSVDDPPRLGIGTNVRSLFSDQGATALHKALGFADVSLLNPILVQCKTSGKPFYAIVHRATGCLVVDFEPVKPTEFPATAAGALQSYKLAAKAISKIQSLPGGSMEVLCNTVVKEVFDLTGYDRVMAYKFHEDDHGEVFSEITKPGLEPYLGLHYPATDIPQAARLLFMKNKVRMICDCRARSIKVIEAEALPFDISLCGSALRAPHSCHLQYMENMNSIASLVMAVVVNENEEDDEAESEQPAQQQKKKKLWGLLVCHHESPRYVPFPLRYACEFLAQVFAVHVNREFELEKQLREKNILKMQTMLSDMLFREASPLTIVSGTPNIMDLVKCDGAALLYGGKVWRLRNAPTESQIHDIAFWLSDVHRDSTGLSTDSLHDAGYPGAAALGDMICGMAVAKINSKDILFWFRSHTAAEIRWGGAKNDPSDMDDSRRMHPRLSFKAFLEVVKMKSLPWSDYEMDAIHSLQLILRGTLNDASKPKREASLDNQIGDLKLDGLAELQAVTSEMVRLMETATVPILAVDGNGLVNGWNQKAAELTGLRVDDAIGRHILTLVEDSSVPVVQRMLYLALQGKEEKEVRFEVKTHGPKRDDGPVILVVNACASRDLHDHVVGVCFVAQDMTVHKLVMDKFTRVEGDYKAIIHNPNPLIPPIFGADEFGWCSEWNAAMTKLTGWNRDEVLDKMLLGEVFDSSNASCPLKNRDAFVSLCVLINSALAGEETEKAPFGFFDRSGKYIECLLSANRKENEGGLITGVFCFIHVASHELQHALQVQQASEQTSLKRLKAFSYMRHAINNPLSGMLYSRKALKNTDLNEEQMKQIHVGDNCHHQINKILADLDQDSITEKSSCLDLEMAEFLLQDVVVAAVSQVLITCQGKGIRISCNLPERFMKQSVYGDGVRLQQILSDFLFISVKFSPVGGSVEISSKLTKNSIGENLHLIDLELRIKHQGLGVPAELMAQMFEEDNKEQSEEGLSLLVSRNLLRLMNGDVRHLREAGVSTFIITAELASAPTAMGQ

[2] = molecular target: T2, Purified oat phytochrome A, Pfr spectral form, autophosphorylated, P06593
T2 chain: T1 chain

[3] = molecular target: T3, Purified oat phytochrome A, autophosphorylated in the presence of gamma-[32P]ATP, P06593
T3 chain: T1 chain

B1: Recombinant PP2AC-JD protein expressed in E. coli BL21 from pGEX-4T-1 as a GST fusion, GST tag removed by thrombin (protein)
chain: DLDQWISKVKDGQHLLEDELQLLCEYVKEILIEESNVQPVNSPVTVCGDIHGQFHDLMKLFQTGGHVPETNYIFMGDFVDRGYNSLDVFTILLLLKARYPANITLLRGNHESRQLTQVYGFYDECQRKYGNANATRYCTDVFDYLTLSAIIDGTVLCVHGGLSPDIRTIDQIRVIERNCEIPHEGPFCDLMWSDPEDIETWAVSPRGAGWLFGSRVTSEFNHINNLDLVCRAHQLVQEGLKYMFQDKGLVTVWSAPNYCYRCGNVASILSFNENMEREVKFFTETEENNQMRGPRTGVPYFL
- dephosphorylation of 32P-autophosphorylated phytochrome A (SDS-PAGE, autoradiography) [1]: The Pfr phytochrome A was more efficiently dephosphorylated by the PP2AC-JD than the Pr spectral form
- dephosphorylation of 32P-autophosphorylated phytochrome A (SDS-PAGE, autoradiography) [2]: more efficiently dephosphorylated by the PP2AC-JD than the Pr spectral form
- dephosphorylation of 32P-autophosphorylated phytochrome A (SDS-PAGE, autoradiography) [3]: efficiently dephosphorylated by the PP2AC-JD only in the presence of Fe^2+ or Zn^2+
